Data published in patent US20230235057A1.

How the values were obtained:
[1] = biological target: human TGFβ1 protein (Sinobiological, 10804-H08H) (human) (UniProt P01137); test: ELISA with reference to Example 5, reference sample
[2] = biological target: human TGFβ1 protein (Sinobiological, 10804-H08H) (human) (UniProt P01137); test: ELISA with reference to Example 5, plate coated with human TGFβ1
[3] = biological target: human TGFβ1 protein (Sinobiological, 10804-H08H) (human) (UniProt P01137); test: ELISA, plate coated with human TGFβ1, HRP-goat anti-human IgG detection

Chain of PD1/TGFβRII fusion protein (heavy): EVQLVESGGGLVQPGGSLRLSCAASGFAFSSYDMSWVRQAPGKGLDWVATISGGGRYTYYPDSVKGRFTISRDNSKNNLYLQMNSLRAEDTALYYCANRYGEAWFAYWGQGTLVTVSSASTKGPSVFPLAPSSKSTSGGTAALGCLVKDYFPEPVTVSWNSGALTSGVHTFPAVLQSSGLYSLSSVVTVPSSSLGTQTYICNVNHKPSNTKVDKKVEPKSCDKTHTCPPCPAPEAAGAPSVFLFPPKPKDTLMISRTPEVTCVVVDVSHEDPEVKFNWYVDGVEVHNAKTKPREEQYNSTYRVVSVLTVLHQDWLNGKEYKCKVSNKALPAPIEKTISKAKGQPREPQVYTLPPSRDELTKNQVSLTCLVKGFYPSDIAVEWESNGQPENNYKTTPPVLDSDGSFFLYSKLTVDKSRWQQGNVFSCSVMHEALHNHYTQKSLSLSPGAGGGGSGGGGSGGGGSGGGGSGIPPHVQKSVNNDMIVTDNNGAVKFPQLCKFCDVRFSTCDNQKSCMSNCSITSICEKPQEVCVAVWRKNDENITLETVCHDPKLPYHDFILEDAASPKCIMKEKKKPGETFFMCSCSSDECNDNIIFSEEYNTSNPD
Chain of PD1/TGFβRII fusion protein (light): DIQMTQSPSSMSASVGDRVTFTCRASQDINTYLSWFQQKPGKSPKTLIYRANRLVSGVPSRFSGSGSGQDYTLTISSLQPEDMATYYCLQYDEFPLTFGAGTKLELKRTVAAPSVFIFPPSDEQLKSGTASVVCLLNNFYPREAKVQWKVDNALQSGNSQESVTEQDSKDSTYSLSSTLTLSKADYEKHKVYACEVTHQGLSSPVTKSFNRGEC

Binding activity (EC50 of control / EC50 of test sample) [1]: 100% | EC50 [2]: 0.0617 mg/L | EC50 [3]: 0.398 nM
Substance: PD1/TGFβRII fusion protein
